Data published in paper PMC6823300, “The molecular basis of monopolin recruitment to the kinetochore” (Chromosoma, 2019).
Where no end group is shown, it is not given here. The star is where a group is joined. FITC = O=C1OC2(c3ccc(O)cc3Oc3cc(O)ccc32)c2ccc(NC(=S)*)cc21

Legend:
[1] = biological target: T1, S. pombe Csm1 C-terminal globular domain (residues 125–261), wild type (S. pombe, UniProt O13684 125-261); assay: fluorescence polarisation; Csm1 125–261 at 20 nM-250 μM with 20 nM FITC-labelled Mis13 5–17 peptide; 20 mM Tris 7.5, 300 mM NaCl, 10% glycerol, 0.01% NP-40, 1 mM DTT; triplicate; single-site binding model; conditions: both partners purified
T1 construct: S. pombe Csm1 (also called Pcs1), C-terminal globular domain, residues 125-261; also called S. pombe Csm1^125–261; Sp Csm1; source: E. coli Rosetta2 (DE3) pLysS, purified
T1 sequence (looked up): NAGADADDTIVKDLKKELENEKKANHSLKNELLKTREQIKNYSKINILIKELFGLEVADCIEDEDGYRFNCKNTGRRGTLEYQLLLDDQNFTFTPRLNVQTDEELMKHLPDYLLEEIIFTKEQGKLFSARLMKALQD

[2] = biological target: T2, S. cerevisiae Csm1 globular domain (residues 69–190 of 190), untagged (S. cerevisiae, UniProt P25651 69-190); assay: ITC; Microcal ITC 200; His6-MBP-fused Dsn1 fragments at 1–1.5 mM injected into a sample cell containing untagged Csm1 at 100–200 μM; protein buffer (20 mM Tris-HCl pH 7.5, 5% glycerol) plus 300 mM NaCl and 1 mM dithiothreitol; conditions: both partners purified
T2 construct: S. cerevisiae Csm1, globular domain, residues 69-190 of 190; also called Sc Csm1^69–190; untagged Csm1
T2 sequence (looked up): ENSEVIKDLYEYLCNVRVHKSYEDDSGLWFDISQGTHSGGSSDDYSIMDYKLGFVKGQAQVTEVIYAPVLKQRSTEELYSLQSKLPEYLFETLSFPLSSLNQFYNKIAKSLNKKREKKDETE

B1: Sp Mis13 5–17 peptide (Dsn1-N/Box 1), fluorescein isothiocyanate-labelled (peptide)
peptide: {FITC}-PEEQEGFVFVRKG
notes: S. pombe Mis13 (Dsn1), Dsn1-N/Box 1 region, residues 5-17; also called Sp Dsn1-N/Box 1 (residues 5–17); S. pombe Mis13 Dsn1-N region
Kd [1]: 22 µM

B2: His6-MBP-fused S. cerevisiae Dsn1 Box 1-2-3 region (residues 71–110 of 576) (domain or fragment, UniProt P40568 71-110, looked up)
chain: DLKFKRHKNKHIQGFPTLGERLDNLQDIKKAKRVENFNSS
notes: S. cerevisiae Dsn1, Box 1-2-3 region, residues 71-110 of 576; also called Sc Dsn1^71–110; His6-MBP-fused Dsn1 fragment; source: E. coli Rosetta2 (DE3) pLysS, purified
Kd [2]: 12 µM
